This note sets out measurements from article PMC10121170 (Science Advances, 2023).

The target in series [1] is human AURKA_(123–403), kinase domain of Aurora kinase A, wild type (human) (UniProt O14965). Briefly: ITC.
The series “SEC-MALS” deals with the molecule itself. Briefly: SEC-MALS. In general terms: SEC sorts molecules by how far they enter the pores of the column.
For series [2], the target named is T1, AURKA region (AURKA_(123–403)C290,393A) of CEP192-AURKA_(chimera) (human, UniProt O14965 123-403, C290,393A | C290,393A).
T1 sequence: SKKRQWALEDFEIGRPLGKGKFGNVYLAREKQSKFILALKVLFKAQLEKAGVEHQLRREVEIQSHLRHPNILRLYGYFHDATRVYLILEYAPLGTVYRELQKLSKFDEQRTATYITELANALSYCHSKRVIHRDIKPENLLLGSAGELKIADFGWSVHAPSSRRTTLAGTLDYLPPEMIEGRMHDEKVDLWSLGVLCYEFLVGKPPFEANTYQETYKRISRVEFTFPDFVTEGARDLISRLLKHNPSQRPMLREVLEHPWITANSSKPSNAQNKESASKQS
Kind of series: crystal structure.

The target of a further series is T2, AURKA_(123–403) W128A (human, UniProt O14965 123-403, W128A).
T2 sequence: T1 sequence with W6A, A168C, A271C
Kind of series: fluorescence polarisation. Background: Fluorescence polarisation rises when a labelled molecule tumbles more slowly, as on binding a larger partner.

Residue numbers refer to the chain shown, from its start. No end group written: not given here.

As usually defined, the Kd is a measure of binding affinity in units of concentration. Lower therefore signals higher affinity. By stoichiometry N is commonly meant the number of molecules, sites or subunits per partner or assembly. In series [1], “N-terminal MBP-tagged AURKA-BD of human CEP192 residues 440 to 631 (from UniProt Q8TEP8 440-631) (domain or fragment)” returned a Kd of 1200 nM and a stoichiometry N of 1.

B1: CEP192-AURKA_(chimera): CEP192_(506–527) fused to AURKA_(123–403)C290,393A without linker residues (other)
chain: EDFRSGSEAFDLIAQDEEEFNKSKKRQWALEDFEIGRPLGKGKFGNVYLAREKQSKFILALKVLFKAQLEKAGVEHQLRREVEIQSHLRHPNILRLYGYFHDATRVYLILEYAPLGTVYRELQKLSKFDEQRTATYITELANALSYCHSKRVIHRDIKPENLLLGSAGELKIADFGWSVHAPSSRRTTLAGTLDYLPPEMIEGRMHDEKVDLWSLGVLCYEFLVGKPPFEANTYQETYKRISRVEFTFPDFVTEGARDLISRLLKHNPSQRPMLREVLEHPWITANSSKPSNAQNKESASKQS
Consider B1, for which the “stoichiometry N” value in “SEC-MALS” came out at 3. With EDFRSGSEAFDLIAQDEEEFNK (domain or fragment) [CEP192 region (residues 506–527) of CEP192-AURKA_(chimera)], the binding result in series [2] is reported as “binds”. For the molecule EDFRSGSEAFDLIAQDEEEFNKEHQFIQEEN (also: FITC label, position not given here) [FITC-labeled CEP192_(506–536) peptide], in the series with AURKA_(123–403) W128A, the binding result is “binds”.
